Results from patent US20180251559A1, “Methods for the Modulation of LGALS3BP to Treat Systemic Lupus Erythematosus” (Merck Patent GmbH, priority 2015, published 2018).

Assays:
Type in all cases: cell-based
primary human B cells [1] = assay: IgG secretion by stimulated primary human B cells (AlphaLISA); conditions: for IC50: pre-incubated 30 minutes, TLR7 agonist for 5 days, AlphaLISA, read-out: IgG production
Protocol: (§1) A library of conditioned cell culture supernatants with secreted proteins was added and IgG secretion and cell viability (CTG, CellTiter-Glo) measured at the end of culture.
IgG was measure by AlphaLISA 5 days after stimulation.
FIG. 3A-1 and FIG. 3A-2 show data from isolated primary human B cells that were stimulated with small molecule TLR7 agonist in the presence of potential LGALS3BP inhibitors and controls (left). Anti-LGALS3BP antibody was added to primary human B cells activated with CpG or anti-IgM/CD40L/CpG (right). IgG secretion was measured 5 days later by AlphaLISA.
(§2) To identify secreted proteins that affect IgG production by B cells a selection of proteins from the human secretome in an IgG secretion assay were screened using primary human B cells. B cells from healthy volunteers were exposed to 1400 recombinantly expressed secreted proteins before activation with a TLR7 small molecule agonist. After 5 days IgG was measured to identify proteins that enhance or inhibit IgG secretion. […] LGALS3BP was independently identified as the most differentially regulated gene in blood from lupus nephritis patients compared to healthy volunteers.
(§3) The effect of anti-LGALS3BP antibodies on IgG secretion by primary human B cells was evaluated. IgG secretion by TLR7 activated B cells was inhibited by almost 90% in presence of anti-LGALS3BP antibody or anti-LGALS3BP F(ab′)2 (74%) to exclude inhibition through FcγRIIb present on B cells (FIGS. 3A-1 and 3A-2). […] The same inhibitory effect of the LGALS3BP antibody was observed when B cells were activated with CpG (94%) or anti-IgM/CD40L/CpG (77%). IgM secretion was inhibited by antibody blockade as well excluding a role of LGALS3BP in isotype switching (FIG. 3B-1, FIG. 3B-2 and FIG. 3B-3). […] IL-6 secretion was measured to investigate if LGALS3BP blockade interferes with TLR7 activation and signaling thereby reducing B cell proliferation. A 37% decrease in IL-6 production was observed 48 h after B cell stimulation in the presence of anti-LGALS3BP antibody. This reduction was LGALS3BP specific and not mediated through FcγRIIb given the same effect was measured in the presence of Fc block or with anti-LGALS3BP F(ab′)2. Lactose also had the same effect, thereby, excluding a direct effect of the antibody through cross-linking the surface-bound protein. […] To test if anti-LGALS3BP antibodies reduce B cell survival by blocking B cell activation CD69 upregulation was measured 16 h after activation with TLR7 agonist (FIG. 3C-1, FIG. 3C-2 and FIG. 3C-3). No difference in percentage of CD69^+ activated cells or expression levels of CD69 was observed when an anti-LGALS3BP antibody was added. LGALS3BP blockade inhibits IgG secretion independent of the stimulation protocol used. To determine if LGALS3BP blockade has an effect on B cell survival in the absence of stimulation additional experiments were conducted. Adding the antibody to non-stimulated B cells reduced viability by 66% (FIG. 3D-1 and FIG. 3D-2). This effect was most pronounced in B cells.
(§4) Primary B cells from healthy human donors were stimulated in the presence of galectin-3 inhibitors in order to determine if galectin-3 plays a role in the function of LGALS3BP in B cell biology. Specifically, freshly isolated B cells from healthy volunteers were pre-incubated with galectin-3 (Gal-3) inhibitors for 30 minutes before stimulation with TLR7 agonist for 5 days. Supernatants were harvested and IgG measured by AlphaLISA. Cell viability was measured by CellTiter-Glo (ATP production).

primary human B cells [2] = assay: IL-6 secretion by TLR7 agonist-activated B cells (AlphaLISA); conditions: 48 h after B cell stimulation with TLR7 agonist
Protocol: IL-6 secretion was measured 2 days after stimulation by AlphaLISA.
as §3, with “F(ab′)2.” for “F(ab′)2. Lactose also had the same effect, thereby, excluding a direct effect of the antibody through cross-linking the surface-bound protein.”, “No difference in percentage of CD69^+ activated cells or expression levels of CD69 was observed when an anti-LGALS3BP antibody was added. LGALS3BP blockade inhibits IgG secretion independent of the stimulation protocol used. To determine if LGALS3BP blockade has an effect on B cell survival in the absence of stimulation additional experiments were conducted. Adding the antibody to non-stimulated B cells reduced viability by 66% (FIG. 3D-1 and FIG. 3D-2). This effect was most pronounced in B cells.” left out

primary human B cells [3] = assay: Viability of TLR7 agonist-stimulated B cells (CellTiter-Glo, ATP); conditions: for IC50: pre-incubated 30 minutes, TLR7 agonist for 5 days, CellTiter-Glo
Protocol: as §1
B cell viability was measured 5 days later by CellTiter-Glo.
as §2, §4

[4] = tested on: primary human macrophages; assay: LGALS3BP induction in in vitro differentiated macrophages (QPCR, ELISA)
Description: Expression between samples was normalized using HPRT1 as a housekeeping gene. […] LGALS3BP has an IRF binding site consistent with regulation by type I interferons. To determine which pathways can induce LGALS3BP expression, primary human monocytes were differentiated into macrophages in vitro and subsequently were stimulated with IFN-α, IFN-γ, TLR4 agonist (LPS), TLR7/8 agonist (resiquimod) and TLR9 agonist (CpG). […] All stimuli induced secretion of IL-6.

primary human B cells [5] = assay: B cell activation, CD69 expression by flow cytometry; conditions: 16 h after stimulation with TLR7 agonist
Protocol: FIG. 2A-1 and FIG. 2A-2 show data from B cells stimulated with small molecule TLR7 agonist in the presence of increasing concentrations of purified recombinant LGALS3BP. B cell activation was measured 16 h later by flow cytometry quantifying CD69 expression.
To investigate if addition of LGALS3BP affects activation of naïve B cells CD69 expression was measured 16 h after stimulation with TLR7 agonist. All B cells had increased CD69 expression compared to non-stimulated cells but no change was seen upon addition of various concentrations of recombinant LGALS3BP (FIG. 2A-1 and FIG. 2A-2). The localization of endogenous LGALS3BP in primary human B cells with an antibody specific for LGALS3BP was then evaluated (FIG. 2b). […]
The effect of anti-LGALS3BP antibodies on IgG secretion by primary human B cells was evaluated. […] IL-6 secretion was measured to investigate if LGALS3BP blockade interferes with TLR7 activation and signaling thereby reducing B cell proliferation. […] This reduction was LGALS3BP specific and not mediated through FcγRIIb given the same effect was measured in the presence of Fc block or with anti-LGALS3BP F(ab′)2. […] To test if anti-LGALS3BP antibodies reduce B cell survival by blocking B cell activation CD69 upregulation was measured 16 h after activation with TLR7 agonist (FIG. 3C-1, FIG. 3C-2 and FIG. 3C-3). […]

With `OC[C@H]1O[C@@H](O[C@H]2[C@H](O)[C@@H](O)C(O)O[C@@H]2CO)[C@H](O)[C@@H](O)[C@H]1O` (stereo partly drawn) [Lactose, reference compound] the “inhibition of IgG secretion” value (primary human B cells [1]; TLR7 activated B cells, 5 days) was 59% and the “IL-6 production, effect in words” value (primary human B cells [2]) was “same effect”.

For `CCCO[C@@H]1O[C@H](CO)[C@@H](O[C@@H]2O[C@H](CO)[C@H](O)[C@H](O)[C@H]2O)[C@H](O)[C@H]1O` [Beta n-propal lactoside, reference compound], the IC50 (primary human B cells [1]) was greater than 10 µM and the IC50 (primary human B cells [3]) was greater than 10 µM.

`OC[C@H]1O[C@@](CO)(O[C@H]2O[C@H](CO)[C@@H](O)[C@H](O)[C@H]2O)[C@@H](O)[C@@H]1O` [sucrose, reference compound] was tested, and the “IgG secretion, effect in words” value (primary human B cells [1]; TLR7 activated B cells) was “did not inhibit IgG secretion”.

`CC(=O)N[C@H]1C(O)O[C@H](CO)[C@@H](O[C@@H]2O[C@H](CO)[C@H](O)[C@H](O)[C@H]2O)[C@@H]1O` (stereo partly drawn) [LacNAc, N-Acetyl-D-lactosamine, N-Acetyl-D-lactosamine, reference compound] was tested, and the IC50 (primary human B cells [1]; Homo sapiens, B-cell) was greater than 10 µM and the IC50 (primary human B cells [3]; Homo sapiens, B-cell) was greater than 10 µM.

B1: IFN-γ: interferon used as macrophage stimulus (protein, UniProt P01579 24-161, looked up)
Interferon gamma: QDPYVKEAENLKKYFNAGHSDVADNGTLFLGILKNWKEESDRKIMQSQIVSFYFKLFKNFKDDQSIQKSVETIKEDMNVKFFNSNKKKRDDFEKLTNYSVTDLNVQRKAIHELIQVMAELSPAAKTGKRKRSQMLFRG
For B1, the “secretion of the LGALS3BP protein” value ([4]; ELISA in supernatants, stimuli for 20 h) was “increased secretion” and the “LGALS3BP mRNA expression” value ([4]; QPCR, stimuli for 6 h) was “induced”.

B2: LGALS3BP: secreted scavenger receptor family protein, full length human sequence SEQ ID NO: 1; used as recombinant protein (protein, listed as Homo sapiens)
chain: MTPPRLFWVWLLVAGTQGVNDGDMRLADGGATNQGRVEIFYRGQWGTVCDNLWDLTDASVVCRALGFENATQALGRAAFGQGSGPIMLDEVQCTGTEASLADCKSLGWLKSNCRHERDAGVVCTNETRSTHTLDLSRELSEALGQIFDSQRGCDLSISVNVQGEDALGFCGHTVILTANLEAQALWKEPGSNVTMSVDAECVPMVRDLLRYFYSRRIDITLSSVKCFHKLASAYGARQLQGYCASLFAILLPQDPSFQMPLDLYAYAVATGDALLEKLCLQFLAWNFEALTQAEAWPSVPTDLLQLLLPRSDLAVPSELALLKAVDTWSWGERASHEEVEGLVEKIRFPMMLPEELFELQFNLSLYWSHEALFQKKTLQALEFHTVPFQLLARYKGLNLTEDTYKPRIYTSPTWSAFVTDSSWSARKSQLVYQSRRGPLVKYSSDYFQAPSDYRYYPYQSFQTPQHPSFLFQDKRVSWSLVYLPTIQSCWNYGFSCSSDELPVLGLTKSGGSDRTIAYENKALMLCEGLFVADVTDFEGWKAAIPSALDTNSSKSTSSFPCPAGHFNGFRTVIRPFYLTNSSGVD
B2 was tested, and the “increase in IgG” value (primary human B cells [1]; purified recombinant protein, B cells stimulated with TLR9 agonist CpG) was 1.9 fold, the “enhanced IgG production” value (primary human B cells [1]; purified recombinant protein, TLR7 agonist, B cells from 6 healthy volunteers, 5 days) was 1.6 fold and the “increase in IgG” value (primary human B cells [1]; purified recombinant protein, activation cocktail with anti-IgM, CD40L and CpG) was 1.2 fold. The “enhanced IgG secretion” value (primary human B cells [1]; secretome screen, recombinantly expressed secreted proteins, TLR7 small molecule agonist, 5 days) was 4.1 fold, the “cell viability and metabolic activity (ATP measured by CellTiter-Glo assay)” value (primary human B cells [3]; secretome screen, TLR7 small molecule agonist, 5 days) was “doubled” and the “CD69 expression / percentage of CD69+ activated cells” value (primary human B cells [5]) was “no change”.
